# Measurements from patent US20200024319A1 (Amgen, published 2020).
# T1: CD25 (IL-2Rα) on the surface of T cells (human, UniProt P01589 22-272)
# T1 construct: whole, on cells; also called cell surface CD25
# T1 sequence (looked up): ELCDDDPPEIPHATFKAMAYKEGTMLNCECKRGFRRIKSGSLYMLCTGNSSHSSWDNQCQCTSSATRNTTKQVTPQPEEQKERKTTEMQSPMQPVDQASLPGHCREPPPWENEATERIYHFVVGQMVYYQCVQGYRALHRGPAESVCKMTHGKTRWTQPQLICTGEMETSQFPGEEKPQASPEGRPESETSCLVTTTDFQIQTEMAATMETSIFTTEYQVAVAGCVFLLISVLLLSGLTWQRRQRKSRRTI
# How the values were obtained:
# cynomolgus monkey IL-2 = molecular target: T2, cynomolgus monkey IL-2 (cynomolgus monkey, UniProt Q29615 21-154); test: BIACORE
# T2 construct: also called cyno IL-2
# wild-type human IL-2 = molecular target: T3, wild-type human IL-2 (human, UniProt P60568 21-153); test: BIACORE
# T3 construct: also called hIL-2
# [1] = molecular target: T1, CD25 (IL-2Rα) on the surface of T cells; test: binding to cell surface CD25 (method not described)
# [2] = molecular target: T1, CD25 (IL-2Rα) on the surface of T cells; test: flow cytometry, binding to CD25 on the surface of activated T cells
Binder,Kd (cynomolgus monkey IL-2),Kd (wild-type human IL-2),binding result [2],further results
"14D7 (antibody, V domains shown) VH: QVQLQESGPGLVKPSQTLSLTCTVSGGSISSGGYYWNWIRQHPGKGLEWIGYIYYSGNTHYNPSLKSRVTISVDTSKNQFSLKLSSVIAADTAVYYCARDWGRDAFDIWGQGTMVTVSS VL: DIQMTQSPSSLSASVGDRVTITCRASQTISSYLNWYQQKPGKAPKVLIYAASSFQSGVPSRFSGSGSGTDFTLTISSLQPEDFATYYCQQSHYIPRTFGQGTKVEIK",~0.14 nM,~0.3 nM,,
"26H7 (antibody, V domains shown) VH: EVQLVQSGAEVKKPGESLKISCKGSGYRFTNYWIGWVRQMPGKGLEWMGIIYPGDSDTKYSPSFQGQVTISADKSISTAYLQWSSLKASDTAMYYCARHGGYSGRSYYYGMDVWGQGTAVTVSS VL: not shown",~0.31 nM,~0.0013 nM,,
"18F3 (antibody, V domains shown) VH: QVQLQESGPGLVKPSQTLSLTCTVSGGSISSGGYYWSWIRQHPGKGLEWIGYIYYSGSTDYNPSLKSRGIISGDTSKNQFSLKLNSVTAADTAVYYCAREGRFGELGSYYFDYWGQGTLVTVSS VL: SYELTQPPSVSVSPGQTARIACSGDALPRKFAYWYQQKSGQAPVLVISEDSRRPSGIPERFSGSSSGTMATLTISGAQVEDEADYYCFSTDSSANHRVFGGGTKLTVL",~0.05 nM,~0.05 nM,,
"2H11 (antibody, V domains shown) VH: EVQLVQSGAEVKKPGESLKISCKGSGYNFTTYWIGWVRQMPGKGLEWMGIIYPGDSDTRYSPSFQGQVTISADKSINTAYLQWSSLKASDTAIYYCARDTGYFDYWGQGTLVTVSS VL: SYELTQPPSVSVSPGQTARITCSGDALPRKFAYWYQQKSGQAPVLVIYEDRKRPSGIPERFSGSSSGTMATLTISGAQVEDEADYYCYSTDRSGDHVVFGGGTKLTVL",~0.008 nM,~0.03 nM,,
"haD5 fused to the amino terminus of Fc, separated by a GGGGS linker (Fc fusion, IL-2 mutein N-terminal of the Fc; dimer by the Fc; also called haD5 Fc fusion; not shown: IgG1 Fc with an effector function mutation (A327Q, L234A+L235A or N297G)) APTSSSTKKTQLQLQNLLLDLQMILNGISNHKNPRLARMLTFKFYMPEKATELKHLQCLEEELKPLEEALRLAPSKNFHLRPRDLISDINVIVLELKGSETTFMCEYADETATIVEFLNRWITFSQSIISTLTGGGGS",,,,binding result [1]: binds
"26C12 (antibody, V domains shown) VH: EVQLVQSGAEVKKPGESLKISCKGSGYRFTSYWIGWVRQMPGKGLEWMGIIFPGDSDTRYSPSFQGQVTISADKSITTAYLQWSSLKASDTAIYYCARHGHGSSSGRTYYYGLDVWGQGTTVTVSS VL: not shown",~0.13 nM,~0.27 nM,,
"14G7 (antibody, V domains shown) VH: EVQLVQSGAEVKKPGESLKISCKGSGYSFTDYWIGWVRQMPGKGLEWMGIIYPYDSDTRYSPSFQGQVTLSADKSISTAYLRWSSLKASDTAMYYCARHRGGRSYYYGMDVWGQGTTVTVSS VL: not shown",~0.13 nM,~0.28 nM,,
"HaMut1D (V69A, Q74P, N88D, C125A) (ligand, not shown: C-terminal FLAG and poly-His tag) APTSSSTKKTQLQLEHLLLDLQMILNGINNYKNPKLTRMLTFKFYMPKKATELKHLQCLEEELKPLEEALNLAPSKNFHLRPRDLISDINVIVLELKGSETTFMCEYADETATIVEFLNRWITFAQSIISTLT",,,,Kd [2]: ~2 nM
"HaMut6D (E68D, V69A, Q74P, N88D, C125A) (ligand, human IL-2 mutein; not shown: C-terminal FLAG and poly-His tag) APTSSSTKKTQLQLEHLLLDLQMILNGINNYKNPKLTRMLTFKFYMPKKATELKHLQCLEEELKPLEDALNLAPSKNFHLRPRDLISDINVIVLELKGSETTFMCEYADETATIVEFLNRWITFAQSIISTLT",,,binds,
"HaMut7D (N71R, V69A, Q74P, N88D, C125A) (ligand, human IL-2 mutein; not shown: C-terminal FLAG and poly-His tag) APTSSSTKKTQLQLEHLLLDLQMILNGINNYKNPKLTRMLTFKFYMPKKATELKHLQCLEEELKPLEEALRLAPSKNFHLRPRDLISDINVIVLELKGSETTFMCEYADETATIVEFLNRWITFAQSIISTLT",,,,Kd [2]: ~0.2 nM
"HaMut4D (T37A, V69A, Q74P, N88D, C125A) (ligand, human IL-2 mutein; not shown: C-terminal FLAG and poly-His tag) APTSSSTKKTQLQLEHLLLDLQMILNGINNYKNPKLARMLTFKFYMPKKATELKHLQCLEEELKPLEEALNLAPSKNFHLRPRDLISDINVIVLELKGSETTFMCEYADETATIVEFLNRWITFAQSIISTLT",,,binds,
"HaMut2D (N30S, V69A, Q74P, N88D, C125A) (ligand, human IL-2 mutein; not shown: C-terminal FLAG and poly-His tag) APTSSSTKKTQLQLEHLLLDLQMILNGINSYKNPKLTRMLTFKFYMPKKATELKHLQCLEEELKPLEEALNLAPSKNFHLRPRDLISDINVIVLELKGSETTFMCEYADETATIVEFLNRWITFAQSIISTLT",,,binds,
"HaMut8D (K35R, K48E, E68D, N88D, C125A) (ligand, human IL-2 mutein; not shown: C-terminal FLAG and poly-His tag) APTSSSTKKTQLQLEHLLLDLQMILNGINNYKNPRLTRMLTFKFYMPEKATELKHLQCLEEELKPLEDVLNLAQSKNFHLRPRDLISDINVIVLELKGSETTFMCEYADETATIVEFLNRWITFAQSIISTLT",,,binds,
"HaMut3D (K35R, V69A, Q74P, N88D, C125A) (ligand, human IL-2 mutein; not shown: C-terminal FLAG and poly-His tag) APTSSSTKKTQLQLEHLLLDLQMILNGINNYKNPRLTRMLTFKFYMPKKATELKHLQCLEEELKPLEEALNLAPSKNFHLRPRDLISDINVIVLELKGSETTFMCEYADETATIVEFLNRWITFAQSIISTLT",,,binds,
"HaMut5D (K48E, V69A, Q74P, N88D, C125A) (ligand, human IL-2 mutein; not shown: C-terminal FLAG and poly-His tag) APTSSSTKKTQLQLEHLLLDLQMILNGINNYKNPKLTRMLTFKFYMPEKATELKHLQCLEEELKPLEEALNLAPSKNFHLRPRDLISDINVIVLELKGSETTFMCEYADETATIVEFLNRWITFAQSIISTLT",,,binds,
"9B10 (antibody, V domains shown) VH: QVQLVESGGGVVQPGRSLRLSCAASGFTFSSYAMHWVRQAPGKGLEWVAVIWYDGINKYYADSVKGRFTISRDNSKNTLYLQMNSLRAEDTAVYYCARGSYYDSSGYYFGEDFDYWGQGTLVTVSS VL: DIVMTQTPLSSPVTLGQPASISCRSSHNLLHSDGNTYLSWLQQRPGQPPRLLIYEISNRFSGVPDRFSGSGAGTDFTLKISRVEAEDVGVYYCMQVTQFPTFGGGTKVEIK",~0.16 nM,~0.11 nM,,
"9D6 (antibody, V domains shown) VH: EVQLVQSGAEVKKPGESLKISCKGSGYRFTSYWIGWVRQMPGKGLEWMGIIHPGDSDTRYSPSFQGQVTISADKSISTAYLQWSSLKASDTAIYYCTRQGRSFYYYGMDVWGQGTTVTVSS VL: DIVMTQTPLSLPVTPGEPASISCRSSQSLLDSDEGNTYLDWYLQKPGQSPQLLIYTLSYRASGVPDRFSGTGSDTDFTLKISRVEAEDVGVYYCMQRIEFPLTFGGGTKVEIK",~0.016 nM,~0.041 nM,,
"2C3 (antibody, V domains shown) VH: EVQLVQSGAEVKKPGESLKISCKGSGYRFTSYWIGWVRQMPGKGLEWMGIIYPGDSDTRYSPSFQGQVTISADKSISAAYLQWSSLKASDTAMYYCARQQVAGMLDYWGQGTLVTVSS VL: EIVLTQSPGTLSLSPGERATLSCRASQSFSSSYLVWYQQKPGQAPRLLIYGASSRATGIPDRFGGSGSGTDFTLTISRLEPEDFAVYYCQQYGSSPLTFGGGTKVEIK",~0.0012 nM,,,
